Laboratory results reported in patent US20140011734A1 (Sanofi, published 2014).
Values belong to the binder of their own block, whether it stands above or below them. Starred links: 1 amine or outer side, 2 acyl side, 3 side chain; linkers in the order of their positions; H or OH if unused. Non-standard residues stand in square brackets, D forms with d. Amp = L-2-amino-3-methoxypropionic acid, COC[C@H](N[*:1])C(=O)[*:2]; Amb = L-2-amino-4-methoxybutyric acid, COCC[C@H](N[*:1])C(=O)[*:2]; NHCH2(1,3-C6H4)CH2CO = O=C(Cc1cccc(CN[*:1])c1)[*:2]; Nle = CCCC[C@H](N)C(=O)O; Abu = CC[C@H](N)C(=O)O; Aoc = NCCCCCCCC(=O)O; Ahp = NCCCCCCC(=O)O; βAla = NCCC(=O)O

Key:
[1] = molecular target: T1, blood platelet receptor glycoprotein Ib-IX-V complex (GPIb) (human, UniProt P07359 17-652; P13224 26-206; P14770 17-177; P40197 17-560); experiment: inhibition of static adhesion of human platelets to coated vWF-A1; grade C = IC50 lower than 1 µM
T1 construct: whole, on cells; also called GPIb complex; GPIb receptor
Protocol: (§1) Platelet rich plasma was carefully transferred again to fresh containers, PGE1 (0.5 μg/ml, Sigma) was added and the suspension was allowed to rest for 5 min. This was followed by another centrifugation step for 15 min at 360 g. The supernatant was discarded and the cell pellets were carefully resuspended in tyrode buffer (NaCl, 137 mM (Sigma S-3014); KCl, 2.7 mM (Sigma P-9541); NaHCO₃,12 mM (Riedel deHaen 31437); NaH₂PO₄×2H₂O, 0.36 mM (Merck 6345); MgCl₂×6 H₂O, 1 mM (Sigma M-2670); Hepes, 10 mM (Sigma H-1016); glucose, 5.6 mM (Merck 8342); BSA, 0.1% (Sigma A7906)), and PGE1 (0.25 μg/ml) was added. After 5 min of resting the suspension was spun down for 15 min at 300 g. The supernatant was discarded and the pellets were carefully resuspended in TBS buffer (Tris-HCl, 50 mM (Fluka 93371); NaCl, 120 mM (Sigma S-3014); KCl, 2.7 mM (Sigma P-9541); CaCl₂, 0.05 mM (Sigma C-3306); MgCl₂×6 H₂O, 2 mM (Sigma M-2670); BSA, 0.1% (Sigma A7906); pH 7.4). The platelet count was adjusted to 2×10⁵ cells/μl, and the suspensions from individual donors were pooled at this stage. The platelets were allowed to rest for 30 min at room temperature before calcein AM (2.5 μM per 2×10⁵ cells/pi (Molecular Probes C-3099)) was added. This was followed by 15 min incubation in the dark. Cells were diluted to 5×10⁴ cells/μl and ReoPro (3 μg/ml (Centocor B. V., Leiden, N L)) was added, followed by a 10 min incubation period in the dark before adding the platelets to the assay plates.
96 well plates (Greiner hb, black, clear bottom, F, 655097) were coated with human recombinant vWF-A1 domain (1.5 μg/well, AA 475-706, expressed in E. coli) in Tris buffer (pH 7.4; Tris-HCl, 25 mM; NaCl, 150 mM) and incubated for 1 h at room temperature. After washing the wells 3× with TBS, blocking buffer (TBS with 5% BSA) was added followed by an incubation for 1 h. The wells were washed again 3× with TBS before 200 μl TBS were added to each well, preventing them from drying out. TBS was flicked out and serial dilutions of the test compound were added. The washed and calcein AM labeled thrombocytes were added to the wells (2.5×10⁶ cells/well). Following an adhesion period of 1.5 h in the dark the wells were washed 3× with TBS. Measurement of fluorescence per well was performed in a SpectraMax M5 reader (Molecular Devices). From the raw data % inhibition and IC₅₀ values were calculated.

[2] = molecular target: T1, blood platelet receptor glycoprotein …; experiment: cell-based or functional assay
[3] = molecular target: T1, blood platelet receptor glycoprotein …; experiment: inhibition of static adhesion of human platelets to coated vWF-A1; grade A = showed activity at 10 µM
Protocol: as §1, with “The platelet count was adjusted to 2×10⁵ cells/μl, and the suspensions from individual donors were pooled at this stage. The platelets were allowed to rest for 30 min at room temperature before calcein AM (2.5 μM per 2×10⁵ cells/pi (Molecular Probes C-3099)) was added. This was followed by 15 min incubation in the dark. Cells were diluted to 5×10⁴ cells/μl and ReoPro (3 μg/ml (Centocor B. V., Leiden, N L)) was added, followed by a 10 min incubation period in the dark before adding the platelets to the assay plates.” left out
96 well plates (Greiner hb, black, clear bottom, F, 655097) were coated with human recombinant vWF-A1 domain (1.5 μg/well, AA 475-706, expressed in E. coli) in Tris buffer (pH 7.4; Tris-HCl, 25 mM; NaCl, 150 mM) and incubated for 1 h at room temperature. […] Measurement of fluorescence per well was performed in a SpectraMax M5 reader (Molecular Devices). From the raw data % inhibition and IC₅₀ values were calculated.

T1 sequence (P07359 17-652, chain 1 of 4): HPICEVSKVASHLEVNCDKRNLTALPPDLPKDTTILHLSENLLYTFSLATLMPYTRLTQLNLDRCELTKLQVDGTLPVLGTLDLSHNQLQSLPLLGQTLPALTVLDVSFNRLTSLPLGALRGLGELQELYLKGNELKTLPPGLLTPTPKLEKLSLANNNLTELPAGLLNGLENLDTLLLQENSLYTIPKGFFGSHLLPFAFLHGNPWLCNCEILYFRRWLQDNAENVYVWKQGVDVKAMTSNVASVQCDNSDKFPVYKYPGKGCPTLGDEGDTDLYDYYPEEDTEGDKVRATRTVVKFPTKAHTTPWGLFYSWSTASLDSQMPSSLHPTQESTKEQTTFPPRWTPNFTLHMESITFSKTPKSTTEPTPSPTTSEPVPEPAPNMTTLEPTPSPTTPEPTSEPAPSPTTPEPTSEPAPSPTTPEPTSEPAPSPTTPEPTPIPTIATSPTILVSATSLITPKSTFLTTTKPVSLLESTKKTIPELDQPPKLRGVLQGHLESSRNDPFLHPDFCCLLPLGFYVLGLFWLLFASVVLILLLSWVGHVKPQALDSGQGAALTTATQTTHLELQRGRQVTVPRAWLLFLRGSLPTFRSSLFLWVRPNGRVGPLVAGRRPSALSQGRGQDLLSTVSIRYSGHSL
T1 sequence (P13224 26-206, chain 2 of 4): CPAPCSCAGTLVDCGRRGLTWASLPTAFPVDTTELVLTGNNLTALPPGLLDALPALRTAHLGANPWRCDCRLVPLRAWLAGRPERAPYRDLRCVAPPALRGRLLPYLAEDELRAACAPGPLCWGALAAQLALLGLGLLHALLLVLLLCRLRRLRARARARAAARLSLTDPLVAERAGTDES
T1 sequence (P14770 17-177, chain 3 of 4): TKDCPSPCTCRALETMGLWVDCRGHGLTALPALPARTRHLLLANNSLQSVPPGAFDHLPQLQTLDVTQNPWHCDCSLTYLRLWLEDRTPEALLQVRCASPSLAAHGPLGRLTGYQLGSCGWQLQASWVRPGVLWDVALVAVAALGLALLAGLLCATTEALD
T1 sequence (P40197 17-560, chain 4 of 4): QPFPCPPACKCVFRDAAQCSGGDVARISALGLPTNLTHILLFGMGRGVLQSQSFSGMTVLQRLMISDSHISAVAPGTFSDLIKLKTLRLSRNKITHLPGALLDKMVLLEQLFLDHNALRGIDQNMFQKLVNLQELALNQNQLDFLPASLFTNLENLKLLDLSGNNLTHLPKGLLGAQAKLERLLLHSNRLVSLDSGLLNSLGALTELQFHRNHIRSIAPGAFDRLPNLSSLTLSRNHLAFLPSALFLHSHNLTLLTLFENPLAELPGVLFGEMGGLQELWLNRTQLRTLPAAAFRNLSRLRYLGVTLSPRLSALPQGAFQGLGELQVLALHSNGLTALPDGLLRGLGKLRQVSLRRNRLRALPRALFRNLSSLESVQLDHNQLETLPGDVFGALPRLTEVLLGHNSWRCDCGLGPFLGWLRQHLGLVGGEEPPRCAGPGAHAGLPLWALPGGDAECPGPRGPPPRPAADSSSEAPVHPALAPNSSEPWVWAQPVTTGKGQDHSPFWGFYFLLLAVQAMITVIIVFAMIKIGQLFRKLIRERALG

IC50 [1]: < 1 µM
B1: Cyclo[Leu-His-Asn-Leu-NH-(CH2)7-CO-Thr-Glu-Arg-Met-Ala] (peptide)
peptide: cyclo(LHNL[Aoc]TERMA)
SMILES: CSCC[C@@H]1NC(=O)[C@H](CCCNC(=N)N)NC(=O)[C@H](CCC(=O)O)NC(=O)[C@H]([C@@H](C)O)NC(=O)CCCCCCCNC(=O)[C@H](CC(C)C)NC(=O)[C@H](CC(N)=O)NC(=O)[C@H](Cc2c[nH]cn2)NC(=O)[C@H](CC(C)C)NC(=O)[C@H](C)NC1=O

IC50 [1]: < 1 µM
B2: Cyclo[Leu-His-Asn-Leu-NH-(CH2)6-CO-Thr-Glu-Arg-Nle-Ala] (peptide)
peptide: cyclo(LHNL[Ahp]TER[Nle]A)
SMILES: CCCC[C@@H]1NC(=O)[C@H](CCCNC(=N)N)NC(=O)[C@H](CCC(=O)O)NC(=O)[C@H]([C@@H](C)O)NC(=O)CCCCCCNC(=O)[C@H](CC(C)C)NC(=O)[C@H](CC(N)=O)NC(=O)[C@H](Cc2c[nH]cn2)NC(=O)[C@H](CC(C)C)NC(=O)[C@H](C)NC1=O

IC50 (average value), ristocetin-induced agglutination of human whole blood, impedance aggregometry [2]: < 1 µM | IC50 [1]: < 1 µM
B3: Cyclo[Leu-His-Asn-Leu-NH-X4-X3-X2-X1-CO-Thr-Glu-Arg-Met-Ala] of example 2 (peptide)
peptide: cyclo(LHNL[NHCH2(1,3-C6H4)CH2CO]TERMA)
SMILES: CSCC[C@@H]1NC(=O)[C@H](CCCNC(=N)N)NC(=O)[C@H](CCC(=O)O)NC(=O)[C@H]([C@@H](C)O)NC(=O)Cc2cccc(c2)CNC(=O)[C@H](CC(C)C)NC(=O)[C@H](CC(N)=O)NC(=O)[C@H](Cc2c[nH]cn2)NC(=O)[C@H](CC(C)C)NC(=O)[C@H](C)NC1=O

IC50 (average value), ristocetin-induced agglutination of human whole blood, impedance aggregometry [2]: < 1 µM | IC50 [1]: < 1 µM
B4: Cyclo[Leu-His-Asn-Leu-NH-(CH2)6-CO-Thr-Glu-Arg-Met-Ala] (peptide)
peptide: cyclo(LHNL[Ahp]TERMA)
modifications: also: made as TFA salt and as acetate salt
notes: Made as trifluoroacetic acid salt and also as acetic acid salt

binding result [3]: binds
B5: Cyclo[Leu-His-Asn-Leu-NH-(CH2)6-CO-Val-Glu-Arg-Met-Ala] (peptide)
peptide: cyclo(LHNL[Ahp]VERMA)
SMILES: CSCC[C@@H]1NC(=O)[C@H](CCCNC(=N)N)NC(=O)[C@H](CCC(=O)O)NC(=O)[C@H](C(C)C)NC(=O)CCCCCCNC(=O)[C@H](CC(C)C)NC(=O)[C@H](CC(N)=O)NC(=O)[C@H](Cc2c[nH]cn2)NC(=O)[C@H](CC(C)C)NC(=O)[C@H](C)NC1=O

IC50 [1]: < 1 µM
B6: Cyclo[Leu-His-Asn-Leu-NH-(CH2)6-CO-Thr-Glu-Arg-Abu-Ala] (peptide)
peptide: cyclo(LHNL[Ahp]TER[Abu]A)
SMILES: CC[C@@H]1NC(=O)[C@H](CCCNC(=N)N)NC(=O)[C@H](CCC(=O)O)NC(=O)[C@H]([C@@H](C)O)NC(=O)CCCCCCNC(=O)[C@H](CC(C)C)NC(=O)[C@H](CC(N)=O)NC(=O)[C@H](Cc2c[nH]cn2)NC(=O)[C@H](CC(C)C)NC(=O)[C@H](C)NC1=O

IC50 [1]: < 1 µM
B7: Cyclo[Leu-His-Asn-Leu-NH-(CH2)6-CO-Thr-Glu-Arg-Amp-Ala] (peptide)
peptide: cyclo(LHNL[Ahp]TER[Amp]A)
SMILES: COC[C@@H]1NC(=O)[C@H](CCCNC(=N)N)NC(=O)[C@H](CCC(=O)O)NC(=O)[C@H]([C@@H](C)O)NC(=O)CCCCCCNC(=O)[C@H](CC(C)C)NC(=O)[C@H](CC(N)=O)NC(=O)[C@H](Cc2c[nH]cn2)NC(=O)[C@H](CC(C)C)NC(=O)[C@H](C)NC1=O

IC50 [1]: < 1 µM
B8: Cyclo[Leu-His-Asn-Leu-NH-(CH2)6-CO-Thr-Glu-Arg-Amb-Ala] (peptide)
peptide: cyclo(LHNL[Ahp]TER[Amb]A)
SMILES: COCC[C@@H]1NC(=O)[C@H](CCCNC(=N)N)NC(=O)[C@H](CCC(=O)O)NC(=O)[C@H]([C@@H](C)O)NC(=O)CCCCCCNC(=O)[C@H](CC(C)C)NC(=O)[C@H](CC(N)=O)NC(=O)[C@H](Cc2c[nH]cn2)NC(=O)[C@H](CC(C)C)NC(=O)[C@H](C)NC1=O

binding result [3]: binds
B9: Cyclo[Leu-His-Asn-Leu-NH-(CH2)2-CO-Gly-Thr-Glu-Arg-Met-Ala] (peptide)
peptide: cyclo(LHNL[βAla]GTERMA)
SMILES: CSCC[C@@H]1NC(=O)[C@H](CCCNC(=N)N)NC(=O)[C@H](CCC(=O)O)NC(=O)[C@H]([C@@H](C)O)NC(=O)CNC(=O)CCNC(=O)[C@H](CC(C)C)NC(=O)[C@H](CC(N)=O)NC(=O)[C@H](Cc2c[nH]cn2)NC(=O)[C@H](CC(C)C)NC(=O)[C@H](C)NC1=O
